Results from the supplement of paper PMC10567573.

B1: TRIM43 (parent)
chain: RAQMIRNEYRKLHPVLHKEEKQHL

Variants of: B1
Test: protein stability index of a GFP-peptide fusion (GPS, HEK-293T) (PSI 1-6); higher = more stable
Conditions: c terminus: a fixed tail appended
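Also: lentivirally expressed fusions sorted by FACS into six bins by GFP to DsRed ratio, PSI derived from sequencing read proportions per bin multiplied by bin number.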

Protein stability index, by site and new letter:
R10: W 2.99; Q 3.84; T 3.85; Y 3.31; N 3.66; K 2.91; H 3.39; M 2.91; S 3.71; E 4.09; F 3.4; C 3.19; I 3.75; D 4.21; G 3.26
K18: Q 3.49; W 2.44; M 2.6; A 2.81; I 2.6; E 4.06; H 3.59; R 2.55; N 3.2; C 2.7; G 3.37; F 2.4; L 2.95; V 3.26; Y 3.09; S 3.54
Q3: V 2.63; R 2.81; K 3.7; F 2.33; A 2.67; L 2.41; E 3.48; D 3.64; S 3.22; H 3.13; I 2.78; Y 2.54; M 2.82; N 3.19; P 3.39; W 2.79; C 2.68
R6: C 3.67; L 2.15; G 3.96; I 1.89; P 3.57; N 4.15; A 3.07; E 3.48; T 3.89; M 2.19; V 3.52; Y 2.57; K 3.39; H 3.54
Q22: A 2.89; W 2; G 2.34; Y 2.71; K 2.99; D 3.65; F 1.86; S 3.3; R 3.62; I 2.54; H 2.91; E 3.82; C 2.54; P 3.47; V 2.64; N 3.07
L24: N 4.01; Q 3.84; M 3.45; S 3.82; E 4.61; G 3.67; T 4.01; Y 3.34; I 3.19; D 4.51; V 3.67; K 3.77; F 2.36; P 3.5; R 3.06
E8: G 2.84; R 2.89; H 2.78; C 2.59; T 2.56; M 2.2; V 2.33; F 2.91; P 2.72
H23: M 3.39; S 3.45; T 3.23; V 3.17; C 3.51; A 3.08; K 3.33; R 2.94; W 2.61; N 3.13; F 2.58; Q 3.35; L 3.18; D 4.45
K21: R 3.46; F 2.58; E 4.63; L 2.4; P 2.97; S 2.81; A 2.91; N 2.77; Y 2.71; H 3.15; C 3.18; I 2.59; D 3.82; V 3.37; M 2.54
E20: Y 1.83; A 2.32; G 2.29; F 1.91; Q 2.76; R 1.83; I 2.42; S 2.85; D 3.38; P 2.09; W 1.66; H 2.63
H13: P 3.19; T 3.1; W 2.61; G 3.2; E 4.06; R 2.69; A 3.46; N 3.35; C 3; K 3.55; Q 3.56; V 3.11; L 3.28
K11: G 3.76; P 4.16; N 3.68; C 2.79; Y 3.07; M 3.35; F 3.24; Q 3.51; R 3.4; H 3.94; S 2.96
